Laboratory results from patent US6706266, “Oncostatin M antagonists” (SmithKline Beecham Corporation).
Several values for one entry are separate records, joined by “and”; a condition that tells them apart may be missing. Identical values can stand only once.

B1: OSM-GST mutant T21A (ligand, not shown: a dimerising Fc or GST; large carriers; small tags and cut ends)
chain: AAIGSCSKEYRVLLGQLQKQADLMQDTSRLLDPYIRIQGLDVPKLREHCRERPGAFPSEETLRGLGRRGFLQTLNATLGCVLHRLADLEQRLPKAQDLERSGLNIEDLEKLQMARPNILGLRNNIYCMAQLLDNSDTAEPTKAGRGASQPPTPTPASDAFQRKLEGCRFLHGYHRFMHSVGRVFSKWGESPNRSRR
notes: Alanine mutant of m4; also called (14)T21A; 14 T21A
B2: OSM-GST mutant Y10A (ligand, not shown: a dimerising Fc or GST; large carriers; small tags and cut ends)
chain: AAIGSCSKEARVLLGQLQKQTDLMQDTSRLLDPYIRIQGLDVPKLREHCRERPGAFPSEETLRGLGRRGFLQTLNATLGCVLHRLADLEQRLPKAQDLERSGLNIEDLEKLQMARPNILGLRNNIYCMAQLLDNSDTAEPTKAGRGASQPPTPTPASDAFQRKLEGCRFLHGYHRFMHSVGRVFSKWGESPNRSRR
notes: Alanine mutant of m4; also called (4)Y10A; 4 Y10A
B3: OSM-GST mutant Y126A (ligand, not shown: a dimerising Fc or GST; large carriers; small tags and cut ends)
chain: AAIGSCSKEYRVLLGQLQKQTDLMQDTSRLLDPYIRIQGLDVPKLREHCRERPGAFPSEETLRGLGRRGFLQTLNATLGCVLHRLADLEQRLPKAQDLERSGLNIEDLEKLQMARPNILGLRNNIACMAQLLDNSDTAEPTKAGRGASQPPTPTPASDAFQRKLEGCRFLHGYHRFMHSVGRVFSKWGESPNRSRR
notes: Alanine mutant of m4; also called (24)Y126A; 24 Y126A
B4: ADR147 (aptamer raised to CD95 ligand) (ssRNA)
RNA: GGGAGGACGAUGCGGUUAUACUAAGCUGCGGUUAGCGACAGCCCUCCCUAGCGCCUCAGACGACUCGCCCGA
modifications: 2'-F pyrimidines
B5: ADR58 (ssRNA)
RNA: GGGAGGACGAUGCGGAUCGCCCUGAACCGGCCCAGCAGACUGCUGACGGCACGAUCAGACGACUCGCCCGA
modifications: 2'-F C and U (2'-F pyrimidines), 2'-OH purines

What was measured:
[1] = target: T1, oncostatin M (hOSM, mature) (Homo sapiens) (UniProt P13725); assay: filter; conditions: 2'-F pyrimidines; no affinity at any concentration tested
T1 sequence: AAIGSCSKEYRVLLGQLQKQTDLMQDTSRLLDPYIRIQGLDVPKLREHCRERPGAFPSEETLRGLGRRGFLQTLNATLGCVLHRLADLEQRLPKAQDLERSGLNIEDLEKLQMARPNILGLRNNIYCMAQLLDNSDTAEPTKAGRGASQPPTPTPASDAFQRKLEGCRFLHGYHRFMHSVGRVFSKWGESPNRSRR

gp130 on HepG2 B6 cells = target: T2, gp130 on HepG2 B6 cells (UniProt P40189 23-918, limits assumed); assay: cell-based or functional assay
T2 sequence (looked up): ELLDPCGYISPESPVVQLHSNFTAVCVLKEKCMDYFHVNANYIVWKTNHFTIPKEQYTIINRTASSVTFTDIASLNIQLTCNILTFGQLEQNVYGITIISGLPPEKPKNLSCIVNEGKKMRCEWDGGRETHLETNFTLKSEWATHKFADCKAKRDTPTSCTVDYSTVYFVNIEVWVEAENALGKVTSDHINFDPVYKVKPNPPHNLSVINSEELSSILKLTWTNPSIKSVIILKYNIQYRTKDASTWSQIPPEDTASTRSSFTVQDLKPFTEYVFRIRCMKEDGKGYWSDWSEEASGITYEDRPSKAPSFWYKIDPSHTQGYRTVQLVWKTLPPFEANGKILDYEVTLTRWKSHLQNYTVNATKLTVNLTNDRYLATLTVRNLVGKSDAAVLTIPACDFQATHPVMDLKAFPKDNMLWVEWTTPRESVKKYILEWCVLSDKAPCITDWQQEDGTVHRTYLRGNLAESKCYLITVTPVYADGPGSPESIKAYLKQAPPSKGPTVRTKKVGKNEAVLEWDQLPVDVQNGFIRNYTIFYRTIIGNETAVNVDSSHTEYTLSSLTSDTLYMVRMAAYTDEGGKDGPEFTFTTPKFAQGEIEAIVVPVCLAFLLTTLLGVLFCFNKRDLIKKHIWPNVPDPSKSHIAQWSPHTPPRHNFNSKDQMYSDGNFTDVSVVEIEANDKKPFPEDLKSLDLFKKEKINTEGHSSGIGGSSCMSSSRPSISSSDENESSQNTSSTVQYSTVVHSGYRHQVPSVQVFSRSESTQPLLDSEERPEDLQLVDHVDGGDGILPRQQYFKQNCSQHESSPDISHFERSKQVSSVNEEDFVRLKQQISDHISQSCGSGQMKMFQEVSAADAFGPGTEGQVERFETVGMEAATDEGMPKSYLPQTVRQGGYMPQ

gp130-Fc fusion protein [2] = target: T3, gp130-Fc fusion protein (human, UniProt P40189 23-619); assay: competition ELISA: OSM-GST titrated against plate-bound wt OSM for gp130-Fc; mean
T3 construct: extracellular domain; not shown: Fc fragment of human IgG1
T3 sequence (looked up): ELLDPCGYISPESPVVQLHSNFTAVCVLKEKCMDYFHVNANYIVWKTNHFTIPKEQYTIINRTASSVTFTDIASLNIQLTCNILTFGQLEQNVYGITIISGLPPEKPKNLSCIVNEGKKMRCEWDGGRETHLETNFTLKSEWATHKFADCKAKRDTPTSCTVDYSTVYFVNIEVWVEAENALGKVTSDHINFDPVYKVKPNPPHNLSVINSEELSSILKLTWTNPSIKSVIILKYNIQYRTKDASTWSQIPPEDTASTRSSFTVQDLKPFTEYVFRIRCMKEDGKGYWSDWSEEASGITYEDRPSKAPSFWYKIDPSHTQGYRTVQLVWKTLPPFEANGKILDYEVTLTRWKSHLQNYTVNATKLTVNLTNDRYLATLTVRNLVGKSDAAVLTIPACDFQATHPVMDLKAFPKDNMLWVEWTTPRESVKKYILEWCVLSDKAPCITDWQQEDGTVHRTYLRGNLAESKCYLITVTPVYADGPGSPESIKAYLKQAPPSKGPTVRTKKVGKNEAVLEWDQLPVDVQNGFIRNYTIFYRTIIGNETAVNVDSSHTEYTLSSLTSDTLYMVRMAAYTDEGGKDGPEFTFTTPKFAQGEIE
Description: (§1) Plates were washed (×6 in PBS 0.05% tween 20, using Skatron Plate washer), tapped dry and blocked to reduce non-specific binding (200 µl/well, 1% BSA/PBS). Following 1 h incubation (room temperature on a shaking platform) the plates were tapped dry and wild type (wt) or mutant OSM-GST from Example 9b added (50 µl/well, 20–0.002 µg/ml, titrated in 1%BSA/PBS). As a positive control polyclonal anti-human OSM antibody (R&D Systems) was also tested (20–0.02 µg/ml). […] Following a 5 h incubation (room temperature on a shaking platform) the plates were washed (×6) and developed using ELISA Amplification System (Life Technologies) as manufacturer's instructions and the OD measured at 490 nm.

gp130-Fc fusion protein [3] = target: T3, gp130-Fc fusion protein; assay: competition ELISA: OSM-GST titrated against plate-bound wt OSM for gp130-Fc; single experiment
Description: as §1

[4] = target: T4, oncostatin M (hOSM, mature) (Homo sapiens, UniProt P13725 SEQ:26-221); assay: competition; little activity in OSM/gp130 ELISA; conditions: tags: expressed in E. coli as GST fusion, GST removed by thrombin cleavage
T4 sequence: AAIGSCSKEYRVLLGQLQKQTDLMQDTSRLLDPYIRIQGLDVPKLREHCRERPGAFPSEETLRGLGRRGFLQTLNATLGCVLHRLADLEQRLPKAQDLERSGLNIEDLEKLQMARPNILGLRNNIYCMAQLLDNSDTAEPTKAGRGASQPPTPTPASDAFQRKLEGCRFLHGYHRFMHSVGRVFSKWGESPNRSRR
Description: as §1, with “Effect of Point Mutations on the Ability of OSM-GST to Compete with Wild Type OSM Binding to gp130-Fc in an ELISA Nunc Immunoplates (F6 Maxisorp, Life Technologies) were coated overnight (4° C.) with wild type OSM (produced according to Example 7a); 50 µl/well, 1 µg/ml in carbonate/bicarbonate buffer pH 9.4). Plates” for “Plates”, “nm. On each plate the total binding was determined by gp130-Fc/conjugate and OSM in the presence of 1%BSA/PBS, and non-specific binding by gp130-Fc/conjugate in absence of OSM, or conjugate binding to OSM in absence of gp130-Fc. […]” for “nm.”

TNF alpha (biotinylated) = TNF alpha (biotinylated) (UniProt P01375 P01375:77-233); assay: competition; no inhibition of TNFalpha binding to TNFR1; conditions: tags: biotin, NEN; chain copies: 3
Sequence of TNF alpha (biotinylated) (P01375 77-233, one chain of several): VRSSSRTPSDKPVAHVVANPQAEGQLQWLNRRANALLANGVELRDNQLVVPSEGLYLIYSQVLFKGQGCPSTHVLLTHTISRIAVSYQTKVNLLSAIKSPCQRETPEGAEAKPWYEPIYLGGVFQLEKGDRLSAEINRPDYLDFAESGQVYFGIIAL
Description: Nunc Immunoplates (F6 Maxisorp, Life Technologies) were coated overnight (4° C.) with sheep anti-human IgG (Serolabs) (50 µl/well, 1 µg/ml in PBS). Plates were washed (×6 in PBS 0.05% tween 20, using Skatron Plate washer), tapped dry and blocked to reduce non-specific binding (200µl/well, 1% BSA/PBS). […] As a positive control an anti-TNFR1 monoclonal antibody (R&D Systems) was included. […] Following a 2 h incubation (room temperature on a shaking platform) the plates were washed (×6) and developed using ELISA Amplification System (Life Technologies) according to the manufacturer's instructions and the OD measured at 490 nm.

[5] = target: T4, oncostatin M (hOSM, mature); assay: filter; SCHMK buffer (1 mM MgCl2, 1 mM CaCl2), 37 C; conditions: tags: expressed in E. coli as GST fusion, GST removed by thrombin cleavage
Description: Binding assays were carried out as described (Fitzwater and Polisky supra). […] Transcribed RNA was dephosphorylated using bacterial alkaline phosphatase for 30 min at 65° C. Dephosphorylated RNA was then 5' labelled using polynucleotide kinase and γ-^33P ATP. Radiolabelled RNA was gel purified, and incubated at 37° C. for 30 min with a serial dilution of hOSM in SCHMK buffer (45 μl OSM plus 5 μl radiolabelled RNA at 1000 cpm/μl). […] The filters were washed immediately with 5 ml SCHMK buffer, dried and counted in a liquid scintillation counter. […] The data sets were fitted by the non-linear least squares method using an EXEL software package.

[6] = target: T4, oncostatin M (hOSM, mature); assay: competition; blocks OSM binding to gp130-Fc, ELISA; conditions: tags: expressed in E. coli as GST fusion, GST removed by thrombin cleavage
Description: as §1, with “Effect of Point Mutations on the Ability of OSM-GST to Compete with Wild Type OSM Binding to gp130-Fc in an ELISA Nunc Immunoplates (F6 Maxisorp, Life Technologies) were coated overnight (4° C.) with wild type OSM (produced according to Example 7a); 50 µl/well, 1 µg/ml in carbonate/bicarbonate buffer pH 9.4). Plates” for “Plates”, “nm. On each plate the total binding was determined by gp130-Fc/conjugate and OSM in the presence of 1%BSA/PBS, and non-specific binding by gp130-Fc/conjugate in absence of OSM, or conjugate binding to OSM in absence of gp130-Fc. […]” for “nm.”

[7] = target: T5, oncostatin M (murine OSM) (Mus musculus, UniProt P53347 P53347:23-206); assay: filter; no binding at any concentration tested; conditions: tags: R&D Systems
T5 sequence: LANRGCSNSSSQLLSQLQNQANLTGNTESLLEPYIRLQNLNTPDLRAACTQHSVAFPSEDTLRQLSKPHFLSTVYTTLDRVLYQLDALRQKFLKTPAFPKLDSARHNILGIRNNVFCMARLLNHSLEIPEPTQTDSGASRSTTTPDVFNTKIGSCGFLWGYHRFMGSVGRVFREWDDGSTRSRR

Molecule	sPAP HepG2 B6 assay: Expt 1 % (EC50 as % of wild type EC50) (gp130 on HepG2 B6 cells) [%]	sPAP HepG2 B6 assay: Expt 1 EC50 (gp130 on HepG2 B6 cells) [µg/mL]	sPAP HepG2 B6 assay: Expt 2 % (EC50 as % of wild type EC50) (gp130 on HepG2 B6 cells) [%]	sPAP HepG2 B6 assay: Expt 2 EC50 (gp130 on HepG2 B6 cells) [µg/mL]	sPAP HepG2 B6 assay: Mean % of wild type EC50 (gp130 on HepG2 B6 cells) [%]	IC50 (gp130-Fc fusion protein [2]) [µg/mL]	IC50 (gp130-Fc fusion protein [3])	further results
GGGAGGACGAUGCGGNNNNNNNNNNNNNNNNNNNNNNNNNNNNNNNNNNNNNNNNCCGCAUCGUCCUCCC [40N7 starting random RNA pool]	–	–	–	–	–	–	–	Kd [1]: > 10000 nM
B1	71	0.017	33	0.0105	52	0.084	0.108 µg/mL and 0.044 µg/mL and 0.101 µg/mL	–
B2	134	0.0324	256	0.082	195	0.223	0.32 µg/mL and 0.18 µg/mL and 0.168 µg/mL	–
B3	386	0.093	32	0.0103	175	0.382	0.386 µg/mL and 0.359 µg/mL and 0.4 µg/mL	sPAP HepG2 B6 assay: Expt 3 % (EC50 as % of wild type EC50) (gp130 on HepG2 B6 cells): 106%; sPAP HepG2 B6 assay: Expt 3 EC50 (gp130 on HepG2 B6 cells): 0.0408 µg/mL
B4	–	–	–	–	–	–	–	binding result [4]: no binding
B5	–	–	–	–	–	–	–	binding result (TNF alpha (biotinylated)): no binding; Kd [5]: 7 nM; IC50 [6]: ~30 pmol/well; binding result [7]: no binding
